Measurements reported in paper PMC8501970, “Structural basis for activation of Swi2/Snf2 ATPase RapA by RNA polymerase” (Nucleic Acids Research, 2021).

Tests used:
[1] = target: T1, RNAP β subunit (Escherichia coli, UniProt P0A8V2 1-1342); assay: cryo-EM structure; RapA–RNAP complex purified by gel filtration, 10 μM incubated with 25 μM DNA/RNA hybrid in 20 mM Tris–HCl pH 7.5, 50 mM NaCl, 5 mM MgCl2, 0.2 mM AMPPNP at 37°C for 10 min; 8 mM CHAPSO added before grids; 3.4 Å map; conditions: both partners purified
T1 construct: RNA polymerase beta subunit, Escherichia coli, as in the core enzyme m2; Stood in the structure as a subunit of the RNAP elongation complex; also called β flap tip helix (FTH) lies in it; source: part of the purified E. coli RNAP core enzyme
T1 sequence (P0A8V2 whole entry): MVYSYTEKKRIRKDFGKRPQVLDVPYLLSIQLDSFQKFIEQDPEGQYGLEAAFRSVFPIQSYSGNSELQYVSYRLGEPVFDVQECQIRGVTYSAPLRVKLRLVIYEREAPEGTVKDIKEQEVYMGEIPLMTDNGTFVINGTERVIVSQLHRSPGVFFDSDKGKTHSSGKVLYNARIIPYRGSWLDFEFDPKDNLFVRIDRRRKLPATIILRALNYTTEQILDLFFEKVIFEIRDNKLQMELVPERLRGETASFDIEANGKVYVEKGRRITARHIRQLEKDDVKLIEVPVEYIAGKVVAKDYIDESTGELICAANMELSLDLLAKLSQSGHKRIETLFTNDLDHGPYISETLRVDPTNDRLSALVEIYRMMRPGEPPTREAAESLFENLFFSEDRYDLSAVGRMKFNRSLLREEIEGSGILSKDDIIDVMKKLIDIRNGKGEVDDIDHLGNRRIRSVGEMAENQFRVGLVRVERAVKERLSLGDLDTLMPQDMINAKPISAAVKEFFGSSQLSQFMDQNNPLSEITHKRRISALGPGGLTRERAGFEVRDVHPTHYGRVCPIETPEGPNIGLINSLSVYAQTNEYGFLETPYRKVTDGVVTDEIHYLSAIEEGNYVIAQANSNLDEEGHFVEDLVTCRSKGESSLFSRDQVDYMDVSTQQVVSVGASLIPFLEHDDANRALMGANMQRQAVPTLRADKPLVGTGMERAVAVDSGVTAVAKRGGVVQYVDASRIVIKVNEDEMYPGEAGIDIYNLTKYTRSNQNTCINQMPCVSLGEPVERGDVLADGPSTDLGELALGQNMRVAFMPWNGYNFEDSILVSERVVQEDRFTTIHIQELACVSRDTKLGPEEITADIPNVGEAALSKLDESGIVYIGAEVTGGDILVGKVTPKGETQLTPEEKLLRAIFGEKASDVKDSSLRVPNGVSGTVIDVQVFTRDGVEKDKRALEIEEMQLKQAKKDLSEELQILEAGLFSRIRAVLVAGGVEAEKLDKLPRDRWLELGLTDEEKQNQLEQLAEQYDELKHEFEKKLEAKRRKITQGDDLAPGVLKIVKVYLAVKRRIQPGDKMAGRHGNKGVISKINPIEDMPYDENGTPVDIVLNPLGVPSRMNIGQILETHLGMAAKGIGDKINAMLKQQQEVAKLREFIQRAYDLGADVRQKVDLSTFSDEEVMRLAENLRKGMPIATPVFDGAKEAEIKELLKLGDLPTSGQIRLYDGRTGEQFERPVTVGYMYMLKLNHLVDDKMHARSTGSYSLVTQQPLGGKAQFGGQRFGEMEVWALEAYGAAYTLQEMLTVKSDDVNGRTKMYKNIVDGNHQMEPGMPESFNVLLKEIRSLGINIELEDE

[2] = target: T2, RNAP β' subunit (Escherichia coli, UniProt P0A8T7 1-1407); assay: as above; conditions: both partners purified
T2 construct: RNA polymerase beta' subunit, Escherichia coli, as in the core enzyme m2; Stood in the structure as a subunit of the RNAP elongation complex; source: part of the purified E. coli RNAP core enzyme
T2 sequence (P0A8T7 whole entry): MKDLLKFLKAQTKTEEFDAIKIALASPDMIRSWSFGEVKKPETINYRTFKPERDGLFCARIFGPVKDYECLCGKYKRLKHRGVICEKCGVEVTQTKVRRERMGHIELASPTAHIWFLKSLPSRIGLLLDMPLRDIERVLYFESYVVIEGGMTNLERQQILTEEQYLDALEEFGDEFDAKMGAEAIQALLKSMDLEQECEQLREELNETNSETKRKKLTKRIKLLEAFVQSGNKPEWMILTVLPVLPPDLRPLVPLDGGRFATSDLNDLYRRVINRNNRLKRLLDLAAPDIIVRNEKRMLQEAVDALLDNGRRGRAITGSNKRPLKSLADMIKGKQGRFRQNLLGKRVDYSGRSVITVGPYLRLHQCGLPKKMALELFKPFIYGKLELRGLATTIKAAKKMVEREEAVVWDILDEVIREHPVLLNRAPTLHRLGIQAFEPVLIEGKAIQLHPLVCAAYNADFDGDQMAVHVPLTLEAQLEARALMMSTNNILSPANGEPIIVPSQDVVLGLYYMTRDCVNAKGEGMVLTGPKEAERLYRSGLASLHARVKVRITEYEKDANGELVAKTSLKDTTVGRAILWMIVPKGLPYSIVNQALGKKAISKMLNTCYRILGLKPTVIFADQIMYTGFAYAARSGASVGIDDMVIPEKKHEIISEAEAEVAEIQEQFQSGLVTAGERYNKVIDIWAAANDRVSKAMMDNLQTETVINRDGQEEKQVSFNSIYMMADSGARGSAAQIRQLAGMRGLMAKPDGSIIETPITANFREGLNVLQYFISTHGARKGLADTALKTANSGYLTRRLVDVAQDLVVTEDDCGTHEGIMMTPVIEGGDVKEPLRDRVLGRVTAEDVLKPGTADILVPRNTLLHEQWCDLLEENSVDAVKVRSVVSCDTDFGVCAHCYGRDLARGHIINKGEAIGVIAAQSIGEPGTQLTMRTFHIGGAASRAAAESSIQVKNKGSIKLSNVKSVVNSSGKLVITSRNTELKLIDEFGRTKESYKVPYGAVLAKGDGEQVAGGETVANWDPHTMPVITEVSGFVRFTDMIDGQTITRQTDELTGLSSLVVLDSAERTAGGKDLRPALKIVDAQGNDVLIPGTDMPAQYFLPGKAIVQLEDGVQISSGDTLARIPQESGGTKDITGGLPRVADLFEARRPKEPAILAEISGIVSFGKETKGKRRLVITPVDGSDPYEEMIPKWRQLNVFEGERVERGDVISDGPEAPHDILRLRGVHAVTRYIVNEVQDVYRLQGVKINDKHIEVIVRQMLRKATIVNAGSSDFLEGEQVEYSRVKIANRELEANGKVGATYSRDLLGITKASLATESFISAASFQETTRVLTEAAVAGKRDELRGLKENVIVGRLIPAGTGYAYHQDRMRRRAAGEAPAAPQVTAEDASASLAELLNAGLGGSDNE

B1: N-terminal His-tagged RapA protein (enzyme, Escherichia coli)
chain: MPFTLGQRWISDTESELGLGTVVAVDARTVTLLFPSTGENRLYARSDSPVTRVMFNPGDTITSHDGWQMQVEEVKEENGLLTYIGTRLDTEESGVALREVFLDSKLVFSKPQDRLFAGQIDRMDRFALRYRARKYSSEQFRMPYSGLRGQRTSLIPHQLNIAHDVGRRHAPRVLLADEVGLGKTIEAGMILHQQLLSGAAERVLIIVPETLQHQWLVEMLRRFNLRFALFDDERYAEAQHDAYNPFDTEQLVICSLDFARRSKQRLEHLCEAEWDLLVVDEAHHLVWSEDAPSREYQAIEQLAEHVPGVLLLTATPEQLGMESHFARLRLLDPNRFHDFAQFVEEQKNYRPVADAVAMLLAGNKLSNDELNMLGEMIGEQDIEPLLQAANSDSEDAQSARQELVSMLMDRHGTSRVLFRNTRNGVKGFPKRELHTIKLPLPTQYQTAIKVSGIMGARKSAEDRARDMLYPERIYQEFEGDNATWWNFDPRVEWLMGYLTSHRSQKVLVICAKAATALQLEQVLREREGIRAAVFHEGMSIIERDRAAAWFAEEDTGAQVLLCSEIGSEGRNFQFASHMVMFDLPFNPDLLEQRIGRLDRIGQAHDIQIHVPYLEKTAQSVLVRWYHEGLDAFEHTCPTGRTIYDSVYNDLINYLASPDQTEGFDDLIKNCREQHEALKAQLEQGRDRLLEIHSNGGEKAQALAESIEEQDDDTNLIAFAMNLFDIIGINQDDRGDNMIVLTPSDHMLVPDFPGLSEDGITITFDREVALAREDAQFITWEHPLIRNGLDLILSGDTGSSTISLLKNKALPVGTLLVELIYVVEAQAPKQLQLNRFLPPTPVRMLLDKNGNNLAAQVEFETFNRQLNAVNRHTGSKLVNAVQQDVHAILQLGEAQIEKSARALIDAARNEADEKLSAELSRLEALRAVNPNIRDDELTAIESNRQQVMESLDQAGWRLDALRLIVVTHQ
notes: RapA (HepA), RNA polymerase-associated Swi2/Snf2 ATPase, Escherichia coli; construct of the cryo-EM sample; also called HepA
B1: binds [1]; binds [2].
